In the supplement of paper PMC10567573:
± gives the standard deviation.

Assay: protein stability index of a GFP-peptide fusion (GPS, HEK-293T) (PSI 1-6); higher = more stable
Details: c terminus: a fixed tail appended
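Also: 24-mer peptide tiles fused after GFP, lentivirally expressed, FACS-sorted into six equal bins by GFP/DsRed ratio, decoded by Illumina sequencing, PSI is the read-weighted mean bin number.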

Sequence	protein stability index (treatment: DMSO)	protein stability index (treatment: MLN4924 1 uM, 8 h)
DQEIKFFRCLFEAEITQIQSHISD [KRT71]	2.25 ± 0.36	2.34 ± 0.77
DQTTSEETVGGAILDQTTSEDAVG [HDAC6]	5.54 ± 0.2	5.54 ± 0.26
DRGPKGEKGEKGDRAGDASKDILL [SCARA5]	5.35 ± 0.27	4.69 ± 0.49
DRNTKRDVTLEASRESSKPRAVLK [PPP2R2C]	4.62 ± 0.23	4.79 ± 0.17
DRVLNYTSWSQHCPWEPQKQPPWE [SPAG8]	2.87 ± 0.2	2.96 ± 0.15
DSDNSGGGGGGGGGGGGGGGTSSN [ANKRD17]	5.39 ± 0.31	5.58 ± 0.22
DSKPESALGAPSKSPSSPQAAFTQ [TBX5]	5.18 ± 0.36	5.21 ± 0.19
DSSCSGQPIHLWQFLKELLLKPHS [SPDEF]	2.47 ± 0.21	2.46 ± 0.16
DSTNVEAAFQTILTEIYRIVSQKQ [RAB11A]	2.26 ± 0.35	2.46 ± 0.034
DVEDLQRDKARLLREKVEFLRSLR [NFE2L1]	3.33 ± 0.48	3.18 ± 0.34
DVHELFLQMAVLVEKQADTLNVIE [STX11]	2.2 ± 0.16	2.27 ± 0.27
DVKTNVQLLKGRVDNISTLDSEIK [CD207]	3.74 ± 0.48	4.01 ± 0.3
DVMLEELSLLTNRGSKMFKLRQMR [MYOZ1]	2.48 ± 0.19	2.67 ± 0.29
DVQLGDIILTATDGLFDNMPDYMI [PPTC7]	2.58 ± 0.33	2.62 ± 0.42
DWASNKVMFKIGDLGHVTRISSPQ [WEE1]	2.53 ± 0.25	2.64 ± 0.41
EADASHCIQQILEAVLHCHQMGVV [CAMK2A]	3.3 ± 0.15	2.86 ± 0.71
EAEQSLRNLEDIHMSLEKDIAAMT [TEKT4]	4.58 ± 0.25	4.8 ± 0.14
EAITDEERAPTATFHDSKHNIVHV [WDFY2]	4.72 ± 0.13	4.63 ± 0.3

Sequence	protein stability index (treatment: DMSO)	protein stability index (treatment: MLN4924 1 uM, 8 h)
EAKALLKERQKKDNHNLIERRRRF [TFE3]	4.21 ± 0.32	4.38 ± 0.2
EANADLEVKIRDWHLKQSPASPER [KRT13]	4.79 ± 0.15	4.97 ± 0.27
EAPDSLNGPLGPSEASIASNLQAM [SMG5]	4.99 ± 0.21	4.91 ± 0.25
EAQHGPHSAVARISRAQYNALTLT [STX11]	3.32 ± 0.11	3.47 ± 0.31
ECAMETTEEQTRQERQGPAKPEVL [NECAB1]	5.57 ± 0.33	5.6 ± 0.23
ECGKTFIYNSHLVVHQRVHSGEKP [ZNF232]	2.96 ± 0.37	2.9 ± 0.49
ECLKRQGQREPGSLSRNNSFRRNV [FBXO34]	4.11 ± 0.26	4.22 ± 0.18
EDDDEEDTDKLLNSASDPSLKDGL [PSD2]	5.51 ± 0.3	5.46 ± 0.33
EDDPLLDAQLLPHHSLQAHFRPRF [TMEM192]	3.57 ± 0.35	3.53 ± 0.15
EDGPGKEEAPELDEAELDYLMDVL [SERTAD1]	5.08 ± 0.12	5.01 ± 0.21
EDHGLVTCSADHLIILWKNGERES [WDR41]	3.27 ± 0.28	2.74 ± 0.21
EDLLQQMLERRYTPYPNLYPDQSP [CLCN6]	3.28 ± 0.24	3.29 ± 0.15
EDQPINLCDKLPPATALGTASYPS [NOL4L]	4.6 ± 0.19	4.62 ± 0.084
EDYSRDEDHIAHIIELLGSIPRHF [SRPK2]	2.62 ± 0.13	2.85 ± 0.31
EEAAMQKCLVTEAQTLLRLSGVQR [RSAD1]	3.51 ± 0.15	3.52 ± 0.35
EEEKLKAEEIRIKGKYNISSEDYR [KCNK9]	5.21 ± 0.19	5.29 ± 0.13
EEEPTGAGLNKDKETEERTDGERV [SDE2]	5.84 ± 0.13	5.61 ± 0.37
EEGLADEEKKLRRSQHARKETEFL [STK38L]	5.33 ± 0.08	5.2 ± 0.39
